Laboratory results reported in the supplement of paper PMC12042874.
± gives the uncertainty stated by the source.

Experiment: amyloid nucleation score (Sup35N fusion, yeast selection) (log enrichment); library NNK3; higher = more nucleation; inactive = no reads after selection
How it was run: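 Three technical output replicates were used for random libraries. Psi-negative yeast expressing peptides of 20 random codons fused to Sup35N were induced with 100 μM copper sulfate for 24 hours and grown 7 days at 30°C on medium lacking adenine and uracil, and input and output plasmid inserts were Illumina-sequenced, excluding sequences with under 100 input reads. The nucleation score is the DiMSum log enrichment of output over input reads, centred on the mode score of non-aggregating sequences.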

Substance | amyloid nucleation score
YEPSNCKLVSMYVFCRLKLA | -0.574 ± 1
CGGAMMKN | inactive
ISYTTSNYITLVYKLTNRAY | 0.911 ± 0.13
DLISEKEQEPGRD | 0.406 ± 0.21
TISLGE | inactive
GIYVVLNCISIFRLWLLSER | inactive
YVGYRFSHFSSGKRSCSYL | inactive
PVARRVMDYKAGSRV | inactive
DFHSLKNDF | inactive
MNNVN | inactive
LYSGVIAHCIVIPIELFSVS | inactive
DAHNRASLSYVPSYYVSFTA | inactive
HRGLWTKATSLYYPFEMWMV | inactive
THNVRDMLPATETFASKSGG | 1.1 ± 0.17
SWFALSLIIKTRVWT | inactive
CNFERFALCDYLSVLFNFQR | 1.54 ± 0.13
CLLPVSVTLTASFLCQHVRY | 0.004 ± 0.75
MNFVPTLRSIVVGRWRDLEV | inactive
ASYRAVNVDTGRIWPEFQLG | inactive
EAVSDLNVGPAVRCGG | inactive
LSSDGFYFNTEYL | inactive
QATVISRVYNWAGLSDCVVV | 0.425 ± 0.47
MGRLKCTVKPVSYEMWKVYA | inactive
SYFVALMSLRYMESTYWR | inactive

Substance | amyloid nucleation score
SFTSC | inactive
SMVNWFMLRTAVVVQSRVAV | inactive
TSRNESHTSDYSLLNHNSLL | inactive
GQLYVMSRSDQARDSFELDA | inactive
TRFGRSANWLFFSAPTGRQN | inactive
YAIAAYFDKRRIVGWVINCS | inactive
TYCLKLMSQAAPTIEKT | inactive
LLYMSECNELSIDRLVNLSK | inactive
FYYPRS | inactive
RGLHLGSSTWIPTAREC | 0.678 ± 0.19
RSGLVRSRCSRI | inactive
FSRTSCVGDCYCGAYNRLSG | 2.02 ± 0.095
WSKDG | inactive
QQNQVSIDGCWV | inactive
ICMYRRLRISCVLAYRFRHF | inactive
TTIFLDS | inactive
EVLYR | inactive
TLILTDRTWLNDLSSLLIQL | inactive
LNGSCKCLKELFVCYRSWVN | -0.79 ± 0.93
NFFCSA | inactive
RIYDYFLFSCYRV | inactive
YWSCRWGLVLVS | inactive
SGFFMMVYRR | -0.364 ± 0.75
FDIIVQITYHVWNMNVHF | 0.932 ± 0.1

Substance | amyloid nucleation score
DKMIGWGDWSSLY | inactive
CVTVNIELLTWITACGNFTL | 1.62 ± 0.075
ILENVA | inactive
MEINGALRYMH | inactive
TICLDLLDWEVEGPYNVVSG | inactive
NTSGKCVKIDVRLNTVTS | inactive
WSDQTDRAGHFAVFNLSMGY | inactive
WCVMPFNSCTTLMYKFSEN | 1.66 ± 0.071
HTWTWDIII | 0.065 ± 0.23
RANSIC | inactive
PLVYLGSLSGDQHWLYFSKE | inactive
SLTSSFFSSMDVFNSALKGG | inactive
GIVALCRTCDNRRMRVSVGV | inactive
LKYSDSSDI | 0.235 ± 0.26
RLYLKTDVSDTRHRYMWLSE | inactive
LHIGLNS | inactive
RSDMGSHFHAELLKYEMATM | inactive
LPRPFSYSGLR | -0.289 ± 0.59
TICGYI | inactive
IIISSFSDWCYFGRDDSCRM | -0.36 ± 0.63
DWRLRSFICRAVVVCCINGD | 1.54 ± 0.077
YLGGFLWVWKQFSSCRLVQY | -0.057 ± 0.78
LLSIRTSSCFCKRGSTKFED | 0.176 ± 0.33
FHCSDYADVHSILTLLLVHT | inactive

Substance | amyloid nucleation score
FGYNWDCCRYMHDPRGLVTT | inactive
ESSRRYEVCCLMW | inactive
GYRYIVDLG | inactive
RMPNSTFGVGWETGFQHSQG | inactive
RVNRRWDSLS | inactive
FVYFFCVSLTSSSPSDCDWP | 1.6 ± 0.069
VTVCSFLLVSRNRNRLRRIY | inactive
IIVSRWLWWDIGVSRNW | inactive
RASFVLRCFKIDDVVVQFHL | 1.23 ± 0.15
SLRSYSDVSVVRFDANSTVS | inactive
TFSGVCIVIAYCGVFNILEG | 1.94 ± 0.097
VMKPNIEFGN | inactive
QFFIFFACLVLVVITLT | 2.53 ± 0.07
DPKTSYNADLAIGSCLLIDF | inactive
RSEVAGFHLE | -0.807 ± 1.1
QPWFMEVL | inactive
CNAYLAYARYIYTHGWPRSL | inactive
SVLGRHYVYLLSIVCGVIFG | inactive
LSGENQLG | inactive
YGSIRLNMYWFVCVCTISWI | 0.661 ± 0.13
LLIFMFCLAFVFFFMAKDGN | inactive
SCVRHPIECLKWMTLTGEVV | inactive
TLSELLR | inactive
MNYRFVISMLWVEVRGFGRQ | -0.892 ± 2.4

Substance | amyloid nucleation score
KRVKWNCRGLDDSMLFFWVV | inactive
CQIEILLPLDVLY | 1.06 ± 0.09
NAHLRCMTTILGLFQTFGRG | 2.02 ± 0.063
NTFCIFALTYIQWVPYLAMF | inactive
FRFASYRSYLIVMP | inactive
FARVSVESRGGNVTFACLCI | 1.73 ± 0.12
SCSGAMTLWFRQPALKHIL | inactive
GTYSTVKFCLCMWVILAPSS | inactive
YWNIMIGYLLKSTGSGRSA | inactive
RTKMLAVRDVHSGYHSTTQC | inactive
RSYKRYSSSYLIIWGWVNMC | inactive
RYGVWLTCYVRAKLM | inactive
CNYSVVFCCNFWDYYLKECA | 2.5 ± 0.06
CFYMTSSDYQEGNG | inactive
VSRKMRLVWTRLVER | inactive
RNVQLMVPFTAGVLWVLQCK | inactive
FVTYDPYTFIDYFIVSHPRL | 0.61 ± 0.17
ELVQKGHGIEWERHGVLFGE | inactive
NCSELGSS | inactive
SVSFVDSRLLYVKICLSALG | inactive
SYGSLM | 0.198 ± 0.27
TVPDRDFMFIRIRSHCYVVD | inactive
FMGGIFAVFTRILVHSIWYS | inactive
TLFGFCAREIVRMRNDHIQV | inactive
